Test [1] has as its target T1, EGFR (form used in the assay not stated) (human, UniProt P00533 25-645, limits assumed). As to the kind of experiment: ELISA, NEM conjugate, 100 nM.
Test [2] has as its target T1, EGFR (form used in the assay not stated). Kind of test: ELISA, NEM conjugate, 500 nM.
The target is the same in test [3]. As to the kind of experiment: ELISA, NEM conjugate, 10 nM.

B1: P54AR4-83v2 G73C, NEM conjugate (designed binder, not shown: small tags and cut ends)
chain: LPAPKNLVVSEVTEDSARLSWDDPWAFYESFLIQYQESEKVGEAIVLTVPGSERSYDLTGLKPGTEYTVSIYCVHNVYKDTNMRGLPLSAIFTT
modifications: N-ethyl maleimide (NEM) on Cys 73
In the case of B1, the “binding relative to P54AR4-83v2 parent” value in test [1] was determined as 0.02 ratio; in test [2], 0.21 ratio; in test [3], 0 ratio.

B2: P54AR4-83v2 K5C, NEM conjugate (designed binder, not shown: small tags and cut ends)
chain: LPAPCNLVVSEVTEDSARLSWDDPWAFYESFLIQYQESEKVGEAIVLTVPGSERSYDLTGLKPGTEYTVSIYGVHNVYKDTNMRGLPLSAIFTT
modifications: N-ethyl maleimide (NEM) on Cys 5
notes: also called KSC
In the case of B2, the results for the “binding relative to P54AR4-83v2 parent” value in test [1], in test [2] and in test [3] were 1.06 ratio, 0.92 ratio and 0.61 ratio, respectively.

B3: P54AR4-83v2 Q34C, NEM conjugate (designed binder, not shown: small tags and cut ends)
chain: LPAPKNLVVSEVTEDSARLSWDDPWAFYESFLICYQESEKVGEAIVLTVPGSERSYDLTGLKPGTEYTVSIYGVHNVYKDTNMRGLPLSAIFTT
modifications: N-ethyl maleimide (NEM) on Cys 34
Consider B3, for which the entries for the “binding relative to P54AR4-83v2 parent” value in test [1], in test [2] and in test [3] were 1.03 ratio, 0.94 ratio and 0.89 ratio, respectively.

B4: P54AR4-83v2 K79C, NEM conjugate (designed binder, not shown: small tags and cut ends)
chain: LPAPKNLVVSEVTEDSARLSWDDPWAFYESFLIQYQESEKVGEAIVLTVPGSERSYDLTGLKPGTEYTVSIYGVHNVYCDTNMRGLPLSAIFTT
modifications: N-ethyl maleimide (NEM) on Cys 79
On to B4, for which the “binding relative to P54AR4-83v2 parent” value in test [1] came to 0.99 ratio; in test [2] it was 0.93 ratio; in test [3], 0.9 ratio.

B5: P54AR4-83v2 G85C, NEM conjugate (designed binder, not shown: small tags and cut ends)
chain: LPAPKNLVVSEVTEDSARLSWDDPWAFYESFLIQYQESEKVGEAIVLTVPGSERSYDLTGLKPGTEYTVSIYGVHNVYKDTNMRCLPLSAIFTT
modifications: N-ethyl maleimide (NEM) on Cys 85
Turning to B5, the “binding relative to P54AR4-83v2 parent” value in test [1] stood at 0.02 ratio; in test [2] it was 0.29 ratio; in test [3], 0.19 ratio.

B6: P54AR4-83v2 P2C, NEM conjugate (designed binder, not shown: small tags and cut ends)
chain: LCAPKNLVVSEVTEDSARLSWDDPWAFYESFLIQYQESEKVGEAIVLTVPGSERSYDLTGLKPGTEYTVSIYGVHNVYKDTNMRGLPLSAIFTT
modifications: N-ethyl maleimide (NEM) on Cys 2
Regarding B6, the “binding relative to P54AR4-83v2 parent” value in test [1] is 0 ratio; in test [2] it was 0.01 ratio; in test [3], 0 ratio.

B7: P54AR4-83v2 L32C, NEM conjugate (designed binder, not shown: small tags and cut ends)
chain: LPAPKNLVVSEVTEDSARLSWDDPWAFYESFCIQYQESEKVGEAIVLTVPGSERSYDLTGLKPGTEYTVSIYGVHNVYKDTNMRGLPLSAIFTT
modifications: N-ethyl maleimide (NEM) on Cys 32
B7: the results for the “binding relative to P54AR4-83v2 parent” value in test [1], in test [2] and in test [3] were 1.01 ratio, 0.91 ratio and 0.87 ratio, respectively.

B8: P54AR4-83v2 L88C, NEM conjugate (designed binder, not shown: small tags and cut ends)
chain: LPAPKNLVVSEVTEDSARLSWDDPWAFYESFLIQYQESEKVGEAIVLTVPGSERSYDLTGLKPGTEYTVSIYGVHNVYKDTNMRGLPCSAIFTT
modifications: N-ethyl maleimide (NEM) on Cys 88
B8: the entries for the “binding relative to P54AR4-83v2 parent” value in test [1], in test [2] and in test [3] were 1.03 ratio, 0.97 ratio and 0.95 ratio, respectively.

B9: P54AR4-83v2 P24C, NEM conjugate (designed binder, not shown: small tags and cut ends)
chain: LPAPKNLVVSEVTEDSARLSWDDCWAFYESFLIQYQESEKVGEAIVLTVPGSERSYDLTGLKPGTEYTVSIYGVHNVYKDTNMRGLPLSAIFTT
modifications: N-ethyl maleimide (NEM) on Cys 24
Turning to B9, the “binding relative to P54AR4-83v2 parent” value worked out at 0.85 ratio in test [1], 0.83 ratio in test [2] and 0.45 ratio in test [3].

B10: P54AR4-83v2 L47C, NEM conjugate (designed binder, not shown: small tags and cut ends)
chain: LPAPKNLVVSEVTEDSARLSWDDPWAFYESFLIQYQESEKVGEAIVCTVPGSERSYDLTGLKPGTEYTVSIYGVHNVYKDTNMRGLPLSAIFTT
modifications: N-ethyl maleimide (NEM) on Cys 47
With B10, the “binding relative to P54AR4-83v2 parent” value is 1.02 ratio in test [1], 0.91 ratio in test [2] and 0.92 ratio in test [3].

B11: P54AR4-83v2 M83C, NEM conjugate (designed binder, not shown: small tags and cut ends)
chain: LPAPKNLVVSEVTEDSARLSWDDPWAFYESFLIQYQESEKVGEAIVLTVPGSERSYDLTGLKPGTEYTVSIYGVHNVYKDTNCRGLPLSAIFTT
modifications: N-ethyl maleimide (NEM) on Cys 83
Take B11: the “binding relative to P54AR4-83v2 parent” value worked out at 0.04 ratio in test [1], 0.24 ratio in test [2] and 0.07 ratio in test [3].

B12: P54AR4-83v2 P4C, NEM conjugate (designed binder, not shown: small tags and cut ends)
chain: LPACKNLVVSEVTEDSARLSWDDPWAFYESFLIQYQESEKVGEAIVLTVPGSERSYDLTGLKPGTEYTVSIYGVHNVYKDTNMRGLPLSAIFTT
modifications: N-ethyl maleimide (NEM) on Cys 4
Consider B12, for which the “binding relative to P54AR4-83v2 parent” value in test [1] amounted to 0.02 ratio; in test [2], 0.12 ratio; in test [3], 0.02 ratio.

B13: P54AR4-83v2 N82C, NEM conjugate (designed binder, not shown: small tags and cut ends)
chain: LPAPKNLVVSEVTEDSARLSWDDPWAFYESFLIQYQESEKVGEAIVLTVPGSERSYDLTGLKPGTEYTVSIYGVHNVYKDTCMRGLPLSAIFTT
modifications: N-ethyl maleimide (NEM) on Cys 82
Regarding B13, the “binding relative to P54AR4-83v2 parent” value in test [1] amounted to 0.97 ratio; in test [2], 0.96 ratio; in test [3] it was 0.56 ratio.

B14: P54AR4-83v2 P87C, NEM conjugate (designed binder, not shown: small tags and cut ends)
chain: LPAPKNLVVSEVTEDSARLSWDDPWAFYESFLIQYQESEKVGEAIVLTVPGSERSYDLTGLKPGTEYTVSIYGVHNVYKDTNMRGLCLSAIFTT
modifications: N-ethyl maleimide (NEM) on Cys 87
Take B14: the “binding relative to P54AR4-83v2 parent” value in test [1] came to 0.93 ratio; in test [2] it was 0.91 ratio; in test [3], 0.73 ratio.

B15: P54AR4-83v2 P50C, NEM conjugate (designed binder, not shown: small tags and cut ends)
chain: LPAPKNLVVSEVTEDSARLSWDDPWAFYESFLIQYQESEKVGEAIVLTVCGSERSYDLTGLKPGTEYTVSIYGVHNVYKDTNMRGLPLSAIFTT
modifications: N-ethyl maleimide (NEM) on Cys 50
Regarding B15, the entries for the “binding relative to P54AR4-83v2 parent” value in test [1], in test [2] and in test [3] were 1.05 ratio, 0.97 ratio and 0.91 ratio, respectively.

B16: P54AR4-83v2 K62C, NEM conjugate (designed binder, not shown: small tags and cut ends)
chain: LPAPKNLVVSEVTEDSARLSWDDPWAFYESFLIQYQESEKVGEAIVLTVPGSERSYDLTGLCPGTEYTVSIYGVHNVYKDTNMRGLPLSAIFTT
modifications: N-ethyl maleimide (NEM) on Cys 62
As to B16, the “binding relative to P54AR4-83v2 parent” value was 0.73 ratio in test [1], 0.61 ratio in test [2] and 0.64 ratio in test [3].

B17: P54AR4-83v2 H75C, NEM conjugate (designed binder, not shown: small tags and cut ends)
chain: LPAPKNLVVSEVTEDSARLSWDDPWAFYESFLIQYQESEKVGEAIVLTVPGSERSYDLTGLKPGTEYTVSIYGVCNVYKDTNMRGLPLSAIFTT
modifications: N-ethyl maleimide (NEM) on Cys 75
Turning to B17, the “binding relative to P54AR4-83v2 parent” value stood at 0.19 ratio in test [1], 0.25 ratio in test [2] and 0.07 ratio in test [3].

B18: P54AR4-83v2 I45C, NEM conjugate (designed binder, not shown: small tags and cut ends)
chain: LPAPKNLVVSEVTEDSARLSWDDPWAFYESFLIQYQESEKVGEACVLTVPGSERSYDLTGLKPGTEYTVSIYGVHNVYKDTNMRGLPLSAIFTT
modifications: N-ethyl maleimide (NEM) on Cys 45
Turning to B18, the “binding relative to P54AR4-83v2 parent” value in test [1] was determined as 1.04 ratio; in test [2], 0.93 ratio; in test [3], 0.91 ratio.

B19: P54AR4-83v2 K40C, NEM conjugate (designed binder, not shown: small tags and cut ends)
chain: LPAPKNLVVSEVTEDSARLSWDDPWAFYESFLIQYQESECVGEAIVLTVPGSERSYDLTGLKPGTEYTVSIYGVHNVYKDTNMRGLPLSAIFTT
modifications: N-ethyl maleimide (NEM) on Cys 40
On to B19, for which the “binding relative to P54AR4-83v2 parent” value in test [1] came out at 0.95 ratio; in test [2], 0.86 ratio; in test [3], 0.88 ratio.

B20: P54AR4-83v2 N76C, NEM conjugate (designed binder, not shown: small tags and cut ends)
chain: LPAPKNLVVSEVTEDSARLSWDDPWAFYESFLIQYQESEKVGEAIVLTVPGSERSYDLTGLKPGTEYTVSIYGVHCVYKDTNMRGLPLSAIFTT
modifications: N-ethyl maleimide (NEM) on Cys 76
Take B20: the “binding relative to P54AR4-83v2 parent” value in test [1] worked out at 0.97 ratio; in test [2] it was 0.91 ratio; in test [3] it was 0.75 ratio.

B21: P54AR4-83v2 N6C, NEM conjugate (designed binder, not shown: small tags and cut ends)
chain: LPAPKCLVVSEVTEDSARLSWDDPWAFYESFLIQYQESEKVGEAIVLTVPGSERSYDLTGLKPGTEYTVSIYGVHNVYKDTNMRGLPLSAIFTT
modifications: N-ethyl maleimide (NEM) on Cys 6
As to B21, the “binding relative to P54AR4-83v2 parent” value in test [1] came to 1.01 ratio; in test [2], 0.89 ratio; in test [3] it was 0.76 ratio.

B22: P54AR4-83v2 L86C, NEM conjugate (designed binder, not shown: small tags and cut ends)
chain: LPAPKNLVVSEVTEDSARLSWDDPWAFYESFLIQYQESEKVGEAIVLTVPGSERSYDLTGLKPGTEYTVSIYGVHNVYKDTNMRGCPLSAIFTT
modifications: N-ethyl maleimide (NEM) on Cys 86
For B22, the “binding relative to P54AR4-83v2 parent” value came to 0.96 ratio in test [1], 0.92 ratio in test [2] and 0.77 ratio in test [3].

B23: P54AR4-83v2 I91C, NEM conjugate (designed binder, not shown: small tags and cut ends)
chain: LPAPKNLVVSEVTEDSARLSWDDPWAFYESFLIQYQESEKVGEAIVLTVPGSERSYDLTGLKPGTEYTVSIYGVHNVYKDTNMRGLPLSACFTT
modifications: N-ethyl maleimide (NEM) on Cys 91
As for B23, the “binding relative to P54AR4-83v2 parent” value in test [1] is 1.01 ratio; in test [2], 1 ratio; in test [3], 0.9 ratio.

B24: P54AR4-83v2 L7C, NEM conjugate (designed binder, not shown: small tags and cut ends)
chain: LPAPKNCVVSEVTEDSARLSWDDPWAFYESFLIQYQESEKVGEAIVLTVPGSERSYDLTGLKPGTEYTVSIYGVHNVYKDTNMRGLPLSAIFTT
modifications: N-ethyl maleimide (NEM) on Cys 7
As for B24, the “binding relative to P54AR4-83v2 parent” value in test [1] came out at 1 ratio; in test [2] it was 0.9 ratio; in test [3], 0.35 ratio.

B25: P54AR4-83v2 P63C, NEM conjugate (designed binder, not shown: small tags and cut ends)
chain: LPAPKNLVVSEVTEDSARLSWDDPWAFYESFLIQYQESEKVGEAIVLTVPGSERSYDLTGLKCGTEYTVSIYGVHNVYKDTNMRGLPLSAIFTT
modifications: N-ethyl maleimide (NEM) on Cys 63
As for B25, the “binding relative to P54AR4-83v2 parent” value in test [1] is 1.02 ratio; in test [2] it was 0.92 ratio; in test [3], 0.95 ratio.

The record behind these values is patent publication US20210301025A1 (published 2021).
